From patent US20230039851A1 (ARO BIOTHERAPEUTICS, published 2023)
Numbering of substitutions follows the chain as printed. Numbers in names are those of the source. One block for each binder: values may come before it.

What was measured:
[1] = molecular target: T1, Human Serum Albumin (human, UniProt P02768 25-609); assay: ELISA on immobilized human albumin
T1 construct: ELISA: albumin coated on plates; pull-down: endogenous albumin in normal human serum; also called HSA; Human SA
Description: (§1) The FN3 proteins were also tested in an ELISA assay to determine their ability to bind to immobilized human or cynomolgous albumin. The binding of 667 nM B7 and B7 variants to human or cynomolgous albumin are illustrated in Table 7. The negative control is wt Tencon.

[2] = molecular target: T2, Cynomolgus Serum Albumin (cynomolgus monkey, UniProt A2V9Z4 25-608); assay: ELISA on immobilized cynomolgus albumin
T2 construct: ELISA: albumin coated on plates; pull-down: endogenous albumin in cynomolgus serum; also called cSA; Cyno SA
T2 sequence (A2V9Z4 25-608 limits assumed): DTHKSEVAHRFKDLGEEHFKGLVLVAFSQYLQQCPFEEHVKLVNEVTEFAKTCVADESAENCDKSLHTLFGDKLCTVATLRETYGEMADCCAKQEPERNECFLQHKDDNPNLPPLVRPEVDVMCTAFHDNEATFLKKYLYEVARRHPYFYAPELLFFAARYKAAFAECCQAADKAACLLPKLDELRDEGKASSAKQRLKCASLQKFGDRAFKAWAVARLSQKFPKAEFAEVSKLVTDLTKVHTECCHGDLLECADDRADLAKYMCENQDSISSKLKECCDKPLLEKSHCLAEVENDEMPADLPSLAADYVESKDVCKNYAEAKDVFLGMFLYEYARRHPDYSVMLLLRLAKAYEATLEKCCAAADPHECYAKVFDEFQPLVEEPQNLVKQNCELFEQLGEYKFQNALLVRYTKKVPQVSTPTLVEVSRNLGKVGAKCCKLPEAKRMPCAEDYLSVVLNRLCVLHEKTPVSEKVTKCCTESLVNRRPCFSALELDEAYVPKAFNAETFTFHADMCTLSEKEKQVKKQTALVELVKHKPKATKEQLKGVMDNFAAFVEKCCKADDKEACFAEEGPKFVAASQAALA
Description: as §1

[3] = molecular target: T1, Human Serum Albumin; assay: ELISA, 667 nM FN3 protein on immobilized human albumin
Description: as §1

[4] = molecular target: T2, Cynomolgus Serum Albumin; assay: ELISA, 667 nM FN3 protein on immobilized cynomolgus albumin
Description: as §1

[5] = molecular target: T1, Human Serum Albumin; assay: pull-down of endogenous albumin from human serum
[6] = molecular target: T2, Cynomolgus Serum Albumin; assay: pull-down of endogenous albumin from cynomolgus serum

T1 sequence (P02768 25-609 limits assumed): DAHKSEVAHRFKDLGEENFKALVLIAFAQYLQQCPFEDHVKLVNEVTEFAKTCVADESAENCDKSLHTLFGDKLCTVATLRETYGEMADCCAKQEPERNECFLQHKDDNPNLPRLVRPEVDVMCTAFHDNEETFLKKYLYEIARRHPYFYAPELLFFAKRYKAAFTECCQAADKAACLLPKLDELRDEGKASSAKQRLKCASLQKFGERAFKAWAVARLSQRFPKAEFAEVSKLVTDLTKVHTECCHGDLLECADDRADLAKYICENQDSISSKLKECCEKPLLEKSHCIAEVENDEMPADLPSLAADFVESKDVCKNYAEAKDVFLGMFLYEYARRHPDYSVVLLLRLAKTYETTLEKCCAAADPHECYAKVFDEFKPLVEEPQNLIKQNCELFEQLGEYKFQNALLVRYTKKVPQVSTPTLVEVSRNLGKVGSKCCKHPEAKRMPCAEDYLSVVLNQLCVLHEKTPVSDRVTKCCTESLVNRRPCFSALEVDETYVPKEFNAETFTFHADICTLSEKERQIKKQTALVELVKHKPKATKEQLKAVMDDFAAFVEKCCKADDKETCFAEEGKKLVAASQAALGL

B2: A10V (designed binder)
chain: MLPAPKNLVVSRVTEDSARLSWTAPDAAFDSFNIAYWEPGIGGEAIWLRVPGSERSYDLTGLKPGTEYKVWIHGVKGGASSPPLIARFTT
notes: Variant of B7; also called B7 A10V; not shown: His tag: FN3 domains were purified as His-tagged proteins
Human Albumin (RLU) [3]: 23100 RLU
Cyno Albumin (RLU) [4]: 43600 RLU

B5: A10V, I85A (designed binder)
chain: B2 chain with I85A
notes: Variant of B7; not shown: His tag: FN3 domains were purified as His-tagged proteins
binding result [5]: no binding
binding result [6]: no binding
Human Albumin (RLU) [3]: 1000 RLU
Cyno Albumin (RLU) [4]: 2500 RLU

B6: A10V, K69A (designed binder)
chain: B2 chain with K69A
notes: as for B5
Human Albumin (RLU) [3]: 15900 RLU
Cyno Albumin (RLU) [4]: 42300 RLU

B10: A10V, A79S (designed binder)
chain: B2 chain with A79S
notes: as for B5
binding result [5]: no binding
Human Albumin (RLU) [3]: 250 RLU
Cyno Albumin (RLU) [4]: 9200 RLU

B14: A10V, P39A (designed binder)
chain: B2 chain with P39A
notes: as for B5
Human Albumin (RLU) [3]: 107000 RLU
Cyno Albumin (RLU) [4]: 73600 RLU

B15: B7 (designed binder)
chain: B2 chain with V10A
notes: FN3 domain (Tencon27-based library clone) expressed in E. coli; also called ALB40; not shown: His tag: FN3 domains were purified as His-tagged proteins
Human Albumin (RLU) [3]: 97400 RLU
Cyno Albumin (RLU) [4]: 145000 RLU

B16: A10V, W47A (designed binder)
chain: B2 chain with W47A
notes: as for B5
binding result [5]: no binding
binding result [6]: no binding
Human Albumin (RLU) [3]: 2100 RLU
Cyno Albumin (RLU) [4]: 2000 RLU

B19: A10V, A35S (designed binder)
chain: B2 chain with A35S
notes: as for B5
Human Albumin (RLU) [3]: 2950 RLU
Cyno Albumin (RLU) [4]: 2950 RLU

Further lines, results first:

binding result [1]: no binding (tested: 667 nM)
binding result [2]: no binding (tested: 667 nM)
Human Albumin (RLU) [3]: 8350 RLU
Cyno Albumin (RLU) [4]: 775 RLU
B1: wt Tencon (designed binder)
chain: LPAPKNLVVSEVTEDSLRLSWTAPDAAFDSFLIQYQESEKVGEAINLTVPGSERSYDLTGLKPGTEYTVSIYGVKGGHRSNPLSAEFTT
notes: also called wild type tencon

Human Albumin (RLU) [3]: 69800 RLU
Cyno Albumin (RLU) [4]: 64400 RLU
B3: A10V, G40A (designed binder)
chain: B2 chain with G40A
notes: as for B5

Human Albumin (RLU) [3]: 2950 RLU
Cyno Albumin (RLU) [4]: 2950 RLU
B4: A10V, S80A (designed binder)
chain: B2 chain with S80A
notes: as for B5

binding result [5]: no binding
binding result [6]: no binding
Human Albumin (RLU) [3]: 950 RLU
Cyno Albumin (RLU) [4]: 1600 RLU
B7: A10V, W71A (designed binder)
chain: B2 chain with W71A
notes: as for B5

binding result [5]: no binding
binding result [6]: no binding
Human Albumin (RLU) [3]: 2350 RLU
Cyno Albumin (RLU) [4]: 1500 RLU
B8: A10V, N33A (designed binder)
chain: B2 chain with N33A
notes: as for B5

Human Albumin (RLU) [3]: 47400 RLU
Cyno Albumin (RLU) [4]: 66300 RLU
B9: A10V, R87A (designed binder)
chain: B2 chain with R87A
notes: as for B5

binding result [5]: no binding
binding result [6]: no binding
Human Albumin (RLU) [3]: 600 RLU
Cyno Albumin (RLU) [4]: 500 RLU
B11: A10V, W37A (designed binder)
chain: B2 chain with W37A
notes: as for B5

Human Albumin (RLU) [3]: 1020 RLU
Cyno Albumin (RLU) [4]: 1150 RLU
B12: A10V, R49A (designed binder)
chain: B2 chain with R49A
notes: as for B5

Human Albumin (RLU) [3]: 21700 RLU
Cyno Albumin (RLU) [4]: 24100 RLU
B13: A10V, P82A (designed binder)
chain: B2 chain with P82A
notes: as for B5

Human Albumin (RLU) [3]: 50600 RLU
Cyno Albumin (RLU) [4]: 46200 RLU
B17: A10V, I41A (designed binder)
chain: B2 chain with I41A
notes: as for B5

binding result [5]: no binding
binding result [6]: no binding
Human Albumin (RLU) [3]: 550 RLU
Cyno Albumin (RLU) [4]: 600 RLU
B18: A10V, H73A (designed binder)
chain: B2 chain with H73A
notes: as for B5

Human Albumin (RLU) [3]: 4480 RLU
Cyno Albumin (RLU) [4]: 9180 RLU
B20: A10V, G42A (designed binder)
chain: B2 chain with G42A
notes: as for B5
